Laboratory results published in patent US20050042747A1, “Hivgp120-induced bob/gpr15 activation” (priority 2001, published 2005).

Tests used:
Assay type in all cases: cell-based
Parameters in all cases: key: — = no calcium flux seen at any dilution tested
CCR2b = biological target: T1, CCR2b (Homo sapiens, UniProt P41597); assay: gp120-induced calcium flux, Ghost (3) cells transfected with CCR2b; settings: Ghost (3) CCR2b cells
T1 construct: host or cells: Ghost (3) cells (human osteosarcoma, CD4+)
T1 sequence (P41597 1-360 isoform P41597-2): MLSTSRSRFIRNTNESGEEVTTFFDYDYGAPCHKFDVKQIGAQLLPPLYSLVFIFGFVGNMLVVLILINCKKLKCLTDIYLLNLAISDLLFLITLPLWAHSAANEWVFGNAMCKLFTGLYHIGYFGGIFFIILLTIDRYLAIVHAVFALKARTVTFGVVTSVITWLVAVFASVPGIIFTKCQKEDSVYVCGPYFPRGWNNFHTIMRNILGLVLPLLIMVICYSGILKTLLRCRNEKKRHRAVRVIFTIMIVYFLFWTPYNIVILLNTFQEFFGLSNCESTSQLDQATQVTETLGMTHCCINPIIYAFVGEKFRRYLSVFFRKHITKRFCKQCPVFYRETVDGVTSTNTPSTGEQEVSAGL
Text: (§1) Human osteosarcoma cell lines were transfected to express CD4, one or another of the HIV coreceptors, and a Green Fluorescent Protein reporter for active HIV infection, for the purpose of testing which of the known coreceptors was used to induce HIV infection by a given HIV strain (Morner A. J Virol 73:2343-9, 1999 and Deng K Nature 388:296-300, 1997). These cells were obtained from the AIDS Research and Reference Reagent Program, courtesy of Dr. Vineet KewalRamani and Dr. Dan Littman. These cells were grown in DMEM with 10% bovine calf serum supplemented with 0.5 mg/ml G418, 0.1 mg/ml hygromycin, and 1 microgram/ml puromycin, and were used at low passage number (less than 10). We have discovered that these cell lines are also activated by gp120 of certain viral strains, inducing a calcium flux in these cells.
(§2) Within 4 days of plating, coreceptor-transfected Ghost (3) cells (as well as the parent cell line not transfected to express any HIV coreceptors as a control) were put in Locke's medium, then treated with Fluo-4 (5 micrograms/ml for 30 minutes at 37° C.). […] The results are given in the following table, expressed as the minimal concentration of gp120 resulting in a significant calcium flux. […]

CXCR4 = biological target: T2, CXCR4 (Homo sapiens, UniProt P61073); assay: gp120-induced calcium flux, Ghost (3) cells transfected with CXCR4; settings: Ghost (3) CXCR4 cells
T2 construct: host or cells: Ghost (3) cells (human osteosarcoma, CD4+)
Description: Calcium studies were done on HT-29 cells and Ghost (3) cells loaded with Fluo 4. The cells were placed in Locke's buffer containing 5 μg/ml Fluo 4 AM ester (Molecular Probes) for 20 to 30 minutes, then in Locke's buffer for an additional 30 minutes before testing. Various concentrations of gp120IIIB (X4 trophic), gp120CM235 (R5 trophic), gp120mN (X4 trophic), gp12093TH975 (nonsyncytium-inducing primary isolate from an asymptomatic subject, trophism undetermined but likely R5), and gp120SF2 (X4R5 trophic), ranging from 10 nM to less than 1 pM, were added in Locke's buffer.^6 The gp120 proteins were obtained from the AIDS Research Reagent Referral Program. Some HT-29 cells were given one of the following pretreatments: 50 μg/ml anti-Bob37 overnight, 1 μg/ml pertussis toxin overnight, or 4.6 μg/ml U73122 for one hour. With the HT-29 cells only, similar tests were also performed with SDF-1, MIP-1α, MIP-1β, and RANTES rather than gp120. The cells were visualized every 4 seconds in a confocal microscope, using 488 nm argon laser excitation and detection filters appropriate for fluorescein-like dyes.
as §1
Within 4 days of plating, coreceptor-transfected Ghost (3) cells (as well as the parent cell line not transfected to express any HIV coreceptors as a control) were put in Locke's medium, then treated with Fluo-4 (5 micrograms/ml for 30 minutes at 37° C.). After an additional 30 minute incubation in Locke's buffer at room temperature, the cells were examined in a confocal microscope while gp120 of various viral strains was added, and the cells were examined at 4 second intervals to look for a gp120-induced calcium flux. The results are given in the following table, expressed as the minimal concentration of gp120 resulting in a significant calcium flux. “−” means that no reproducible calcium flux was observed. “ND” means that the gp120 of that viral strain was not tested with the stated coreceptor. […]

CCR8 = biological target: T3, CCR8 (Homo sapiens, UniProt P51685); assay: gp120-induced calcium flux, Ghost (3) cells transfected with CCR8; settings: Ghost (3) CCR8 cells
T3 construct: host or cells: Ghost (3) cells (human osteosarcoma, CD4+)
Text: as §1, §2

CCR1 = biological target: T4, CCR1 (Homo sapiens, UniProt P32246); assay: gp120-induced calcium flux, Ghost (3) cells transfected with CCR1; settings: Ghost (3) CCR1 cells
T4 construct: host or cells: Ghost (3) cells (human osteosarcoma, CD4+)
T4 sequence (P32246 1-355): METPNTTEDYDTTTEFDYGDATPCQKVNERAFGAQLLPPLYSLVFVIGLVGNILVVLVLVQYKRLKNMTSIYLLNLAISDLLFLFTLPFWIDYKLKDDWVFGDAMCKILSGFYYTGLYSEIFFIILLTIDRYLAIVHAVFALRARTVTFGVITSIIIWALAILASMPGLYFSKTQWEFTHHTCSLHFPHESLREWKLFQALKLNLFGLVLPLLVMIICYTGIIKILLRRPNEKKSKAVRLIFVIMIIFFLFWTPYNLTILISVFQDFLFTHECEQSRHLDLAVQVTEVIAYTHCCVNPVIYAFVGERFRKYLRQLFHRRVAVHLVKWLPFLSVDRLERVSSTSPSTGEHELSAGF
Text: as §1, §2

CCR4 = biological target: T5, CCR4 (Homo sapiens, UniProt P51679); assay: gp120-induced calcium flux, Ghost (3) cells transfected with CCR4; settings: Ghost (3) CCR4 cells
T5 construct: host or cells: Ghost (3) cells (human osteosarcoma, CD4+)
T5 sequence (P51679 1-360): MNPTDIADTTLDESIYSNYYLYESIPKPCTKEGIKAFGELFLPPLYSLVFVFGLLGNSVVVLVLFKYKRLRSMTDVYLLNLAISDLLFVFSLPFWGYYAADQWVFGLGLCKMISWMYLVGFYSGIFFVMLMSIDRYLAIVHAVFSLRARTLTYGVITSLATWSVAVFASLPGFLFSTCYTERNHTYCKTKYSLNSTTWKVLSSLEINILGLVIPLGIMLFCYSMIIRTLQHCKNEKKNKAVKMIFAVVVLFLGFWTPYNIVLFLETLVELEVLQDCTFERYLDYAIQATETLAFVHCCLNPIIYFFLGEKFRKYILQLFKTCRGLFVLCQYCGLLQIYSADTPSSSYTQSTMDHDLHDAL
Text: as §1, §2

Substance	minimal concentration of gp120 resulting in a significant calcium flux (CCR2b)	minimal concentration of gp120 resulting in a significant calcium flux (CXCR4)	minimal concentration of gp120 resulting in a significant calcium flux (CXCR4; listed as IIIB) [pM]	minimal concentration of gp120 resulting in a significant calcium flux (CCR8)	minimal concentration of gp120 resulting in a significant calcium flux (CCR1)	minimal concentration of gp120 resulting in a significant calcium flux (CCR4)
gp120IIIB: HIV-1 envelope surface protein gp120 of strain IIIB (X4 trophic), from the AIDS Research Reagent Referral Program	250 nM	at least 150 pM	150	—	—	—
gp120SF2: gp120 of HIV strain SF2 (X4R5 trophic)	—	—		—	—	—
